{
  "source": "patent US20130122008A1",
  "about": "“Anti-IL 1- ß Antibody Combination Therapy” (NOVARTIS AG, priority 2009, published 2013)",
  "assay_type_in_all_cases": "in vivo, human",
  "key": {"[1]": {"test_system": "patients with type 2 diabetes mellitus (T2DM)", "experiment": "Plasma glucose (fasting and OGTT) in clinical study of ACZ885 in T2DM patients on metformin", "protocol": "The glucose assay is a hexokinase enzymatic method. Hexokinase catalyzes the phosphorylation of glucose with adenosine triphosphate. The glucose-6-phosphate is then oxidized to 6-phosphogluconate in the presence of NAD by the enzyme glucose-6-phosphate dehydrogenase. The amount of NADPH formed during the reaction is equivalent to the amount of D-glucose in the specimen and is measured photometrically by the increase in absorbance. The method has an inter-assay precision of 5.1-6.2% CV, and an intra-assay precision of 1.7-2.5% (determined by assaying 50 replicate assays of a sample then evaluating the coefficient of variation). The method is specific for glucose; no other carbohydrate is oxidized. A multi center, randomized, double blind, placebo-controlled, dose escalation study of the safety, tolerability, pharmacokinetics and pharmacodynamics of ACZ885 administered intravenously to patients with type 2 diabetes mellitus. The aim of the study is to compare the pharmacokinetic and pharmacodynamic effects of five doses (i.v. administration) of ACZ885 with placebo in patients with type 2 diabetes mellitus (T2DM). […] OGTT was administered at Baseline, 4 and 12 wk post-dose. The subsequent cohorts were included in the evaluation of pharmacodynamic, pharmacokinetis, pharmacogenomics and pharmacogenetics. • Cohort 2 (n=90; 1:1=ACZ885:Plb): received a single dose of ACZ885 (10 mg/kg) or placebo. • Cohort 3 (n=96) received a single dose of ACZ885 0.1, 0.3, 1.5 mg/kg or placebo (1:1:1:1). • Cohort 4 (n=30; 2:1=ACZ885:P1b) received a single dose of ACZ885 (0.03 mg/kg) or placebo. The study was designed to follow the patients for 24 weeks (168 days) after the single intravenous (i.v.) administration. An analysis of covariance (ANCOVA) with treatment as the classification variable and baseline as the covariate will be used for the comparison of treatments with respect to these parameters."}, "[2]": {"test_system": "patients with type 2 diabetes mellitus (T2DM)", "experiment": "C-peptide (OGTT) in clinical study of ACZ885 in T2DM patients on metformin", "settings": "dose escalation, Week 4 post-dose, versus placebo", "from_the_text": "In the beta cells of the pancreas, the proinsulin molecule is cleaved to form insulin and C-Peptide. C-Peptide, a polypeptide consisting of 31 amino acids, is stored in the secretory granules of the beta cells and released into circulation in equimolar amounts with insulin. The determination of C-Peptide provides an assessment of endogenous insulin secretory reserves in patients with diabetes mellitus and is considered a more reliable indicator of insulin secretion than insulin itself. The ADVIA Centaur C-Peptide assay is a two-site sandwich immunoassay using direct chemiluminescent technology, which uses constant amounts of two antibodies. The first antibody, in the Lite Reagent, is a monoclonal mouse anti-C-Peptide antibody labeled with acridinium ester. The second antibody, in the Solid Phase, is a monoclonal mouse anti-C-Peptide antibody. Streptavidin in the Solid phase is covalently coupled. A direct relationship exists between the amount of C-Peptide present in the patient sample and the amount of relative light units (RLUs) detected by the system. The method has an inter-assay precision of 1.69-1.81% CV, and an intra-assay precision of 3.7-4.1% (determined by assaying 20 replicate assays of a sample then evaluating the coefficient of variation). Accuracy is evaluated by comparison with College of American Pathologists (CAP) Ligand. […]"}, "[3]": {"test_system": "patients with type 2 diabetes mellitus (T2DM)", "experiment": "Proinsulin in clinical study of ACZ885 in T2DM patients on metformin", "settings": "Week 4 post-dose, versus placebo", "protocol": "A multi center, randomized, double blind, placebo-controlled, dose escalation study of the safety, tolerability, pharmacokinetics and pharmacodynamics of ACZ885 administered intravenously to patients with type 2 diabetes mellitus. The aim of the study is to compare the pharmacokinetic and pharmacodynamic effects of five doses (i.v. administration) of ACZ885 with placebo in patients with type 2 diabetes mellitus (T2DM). […] OGTT was administered at Baseline, 4 and 12 wk post-dose. The subsequent cohorts were included in the evaluation of pharmacodynamic, pharmacokinetis, pharmacogenomics and pharmacogenetics. • Cohort 2 (n=90; 1:1=ACZ885:Plb): received a single dose of ACZ885 (10 mg/kg) or placebo. • Cohort 3 (n=96) received a single dose of ACZ885 0.1, 0.3, 1.5 mg/kg or placebo (1:1:1:1). • Cohort 4 (n=30; 2:1=ACZ885:P1b) received a single dose of ACZ885 (0.03 mg/kg) or placebo. The study was designed to follow the patients for 24 weeks (168 days) after the single intravenous (i.v.) administration. An analysis of covariance (ANCOVA) with treatment as the classification variable and baseline as the covariate will be used for the comparison of treatments with respect to these parameters."}},
  "note": "“Also recorded” adds a separate entry of the source.",
  "data": [
    {"molecule": "ACZ885: anti-IL1β antibody, also referred to as Canakinumab; variable domains shown in SEQ ID NO:1 (VH) and SEQ ID NO:2 (VL) (antibody, V domains shown, homo sapiens) VH: QVQLVESGGGVVQPGRSLRLSCAASGFTFSVYGMNWVRQAPGKGLEWVAIIWYDGDNQYYADSVKGRFTISRDNSKNTLYLQMNGLRAEDTAVYYCARDLRTGPFDYWGQGTLVTVSS VL: EIVLTQSPDFQSVTPKEKVTITCRASQSIGSSLHWYQQKPDQSPKLLIKYASQSFSGVPSRFSGSGSGTDFTLTINSLEAEDAAAYYCHQSSSLPFTFGPGTKVDIK", "values": [
      {"measurement": "OGTT glucose AUC0-4 h / post-prandial glucose", "setting": "[1]; dose escalation, Week 4 post-dose, versus placebo", "result": "Positive trends consistent with dose escalation; also recorded: positive trend at Week 4 post-dose, albeit not statistically significant"},
      {"measurement": "postprandial glucose (OGTT) compared to placebo", "setting": "[1]; single dose 10 mg/kg, 4 weeks", "result": "significant reduction"},
      {"measurement": "peak plasma glucose (PPG) following OGTT", "setting": "[1]; single i.v. dose 10 mg/kg, Week 4, versus placebo in change from baseline, 10 mg/kg", "result": "statistically significant; also recorded: reduction"},
      {"measurement": "fasting plasma glucose (FPG)", "setting": "[1]; single i.v. dose 10 mg/kg, Week 4 post-dose, 10 mg/kg", "result": "decrease"},
      {"measurement": "peak plasma glucose (PPG) following OGTT", "setting": "[1]; single i.v. dose 10 mg/kg, Week 12", "result": "maintained"},
      {"measurement": "plasma AUC glucose following OGTT", "setting": "[1]; single i.v. dose 10 mg/kg, four weeks after treatment, on stable metformin", "result": "statistically significant decreased"},
      {"measurement": "fasting plasma glucose (FPG), course of effect", "setting": "[1]; single i.v. dose 10 mg/kg, from Week 4 to Week 12", "result": "attenuated"},
      {"measurement": "OGTT C-peptide AUC0-4 h", "setting": "[2]", "result": "Positive trends consistent with dose escalation; also recorded: positive trend at Week 4 post-dose, albeit not statistically significant"},
      {"measurement": "proinsulin", "setting": "[3]", "result": "positive trend at Week 4 post-dose, albeit not statistically significant"}
    ]}
  ]
}
